Results taken from patent US20110118131A1 (published 2011).
Residue numbers refer to the chain shown, from its start.

T1: Ep-CAM (UniProt P16422 24-265, limits assumed)
T1 sequence (looked up): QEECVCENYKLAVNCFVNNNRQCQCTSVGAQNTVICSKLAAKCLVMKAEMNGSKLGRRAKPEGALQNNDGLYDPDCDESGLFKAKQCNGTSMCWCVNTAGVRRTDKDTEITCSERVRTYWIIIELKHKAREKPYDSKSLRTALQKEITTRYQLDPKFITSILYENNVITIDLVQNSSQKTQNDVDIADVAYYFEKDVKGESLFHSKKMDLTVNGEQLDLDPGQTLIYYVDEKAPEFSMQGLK

B1: ING-1 Fab, heavy chain A102L (Fab, V domains shown)
VH: QIQLVQSGPELKKPGETVKISCKASGYTFTKYGMNWVKQAPGKGLKWMGWINTYTEEPTYGDDFKGRFAFSLETSASTANLQINNLKSEDTATYFCARFGSLVDYWGQGTSVTVSS
VL: DIVMTQAAFSNPVTLGTSGSISCRSSKSLLHSNGITYLYWYLQKPGQSPQLLIYQMSNLASGVPDRFSSSGSGTDFTLRISRVEAEDVGVYYCAQNLELPRTFGGGTKLEMKR
notes: Fab in periplasmic extract
B2: ING-1 Fab, heavy chain W50A (Fab, V domains shown)
VH: B1 VH with W50A, L102A
VL: B1 VL
notes: Fab in periplasmic extract
B3: ING-1 Fab, heavy chain G33V (Fab, V domains shown)
VH: B1 VH with G33V, L102A
VL: B1 VL
notes: Fab in periplasmic extract
B4: ING-1 Fab, heavy chain D104V (Fab, V domains shown)
VH: B1 VH with L102A, D104V
VL: B1 VL
notes: Fab in periplasmic extract
B5: ING-1 Fab, heavy chain N52A (Fab, V domains shown)
VH: B1 VH with N52A, L102A
VL: B1 VL
notes: Fab in periplasmic extract
B6: ING-1 Fab, heavy chain T59P (Fab, V domains shown)
VH: B1 VH with T59P, L102A
VL: B1 VL
notes: Fab in periplasmic extract
B7: ING-1 Fab, heavy chain E57P (Fab, V domains shown)
VH: B1 VH with E57P, L102A
VL: B1 VL
notes: Fab in periplasmic extract
B8: ING-1 Fab, heavy chain S101L (Fab, V domains shown)
VH: B1 VH with S101L, L102A
VL: B1 VL
notes: Fab in periplasmic extract
B9: ING-1 Fab, heavy chain N52T (Fab, V domains shown)
VH: B1 VH with N52T, L102A
VL: B1 VL
notes: Fab in periplasmic extract
B10: ING-1 Fab, heavy chain N52P (Fab, V domains shown)
VH: B1 VH with N52P, L102A
VL: B1 VL
notes: Fab in periplasmic extract
B11: ING-1 Fab, heavy chain N52G (Fab, V domains shown)
VH: B1 VH with N52G, L102A
VL: B1 VL
notes: Fab in periplasmic extract
B12: ING-1 Fab, heavy chain N52V (Fab, V domains shown)
VH: B1 VH with N52V, L102A
VL: B1 VL
notes: Fab in periplasmic extract
B13: ING-1 Fab, heavy chain G33T (Fab, V domains shown)
VH: B1 VH with G33T, L102A
VL: B1 VL
notes: Fab in periplasmic extract
B14: ING-1 Fab, heavy chain D104P (Fab, V domains shown)
VH: B1 VH with L102A, D104P
VL: B1 VL
notes: Fab in periplasmic extract
B15: ING-1 Fab, heavy chain D104L (Fab, V domains shown)
VH: B1 VH with L102A, D104L
VL: B1 VL
notes: Fab in periplasmic extract
B16: ING-1 Fab, heavy chain W50P (Fab, V domains shown)
VH: B1 VH with W50P, L102A
VL: B1 VL
notes: Fab in periplasmic extract
B17: ING-1 Fab, heavy chain W50G (Fab, V domains shown)
VH: B1 VH with W50G, L102A
VL: B1 VL
notes: Fab in periplasmic extract
B18: ING-1 Fab, heavy chain N52L (Fab, V domains shown)
VH: B1 VH with N52L, L102A
VL: B1 VL
notes: Fab in periplasmic extract
B19: ING-1 Fab, heavy chain D104A (Fab, V domains shown)
VH: B1 VH with L102A, D104A
VL: B1 VL
notes: Fab in periplasmic extract
B20: ING-1 Fab, heavy chain N52I (Fab, V domains shown)
VH: B1 VH with N52I, L102A
VL: B1 VL
notes: Fab in periplasmic extract
B21: ING-1 Fab, heavy chain G100P (Fab, V domains shown)
VH: B1 VH with G100P, L102A
VL: B1 VL
notes: Fab in periplasmic extract
B22: ING-1 Fab, heavy chain W50I (Fab, V domains shown)
VH: B1 VH with W50I, L102A
VL: B1 VL
notes: Fab in periplasmic extract
B23: ING-1 Fab, heavy chain W50L (Fab, V domains shown)
VH: B1 VH with W50L, L102A
VL: B1 VL
notes: Fab in periplasmic extract
B24: ING-1 Fab, heavy chain E57L (Fab, V domains shown)
VH: B1 VH with E57L, L102A
VL: B1 VL
notes: Fab in periplasmic extract
B25: ING-1 Fab, heavy chain E56P (Fab, V domains shown)
VH: B1 VH with E56P, L102A
VL: B1 VL
notes: Fab in periplasmic extract
B26: ING-1 Fab, heavy chain T53G (Fab, V domains shown)
VH: B1 VH with T53G, L102A
VL: B1 VL
notes: Fab in periplasmic extract
B27: ING-1 Fab, heavy chain G33A (Fab, V domains shown)
VH: B1 VH with G33A, L102A
VL: B1 VL
notes: Fab in periplasmic extract
B28: ING-1 Fab, heavy chain T55G (Fab, V domains shown)
VH: B1 VH with T55G, L102A
VL: B1 VL
notes: Fab in periplasmic extract
B29: ING-1 Fab, heavy chain D104T (Fab, V domains shown)
VH: B1 VH with L102A, D104T
VL: B1 VL
notes: Fab in periplasmic extract
B30: ING-1 Fab, heavy chain K31L (Fab, V domains shown)
VH: B1 VH with K31L, L102A
VL: B1 VL
notes: Fab in periplasmic extract
B31: ING-1 Fab, heavy chain P58T (Fab, V domains shown)
VH: B1 VH with P58T, L102A
VL: B1 VL
notes: Fab in periplasmic extract
B32: ING-1 Fab, heavy chain T53P (Fab, V domains shown)
VH: B1 VH with T53P, L102A
VL: B1 VL
notes: Fab in periplasmic extract

Target: T1, Ep-CAM
Assay: Biacore, Fab periplasmic extract on immobilised Epcam

Row | binding result | fold difference in affinity vs original | Binder
1 | no binding |  | B1
2 |  | 0.03 fold | B2
3 |  | 0.04 fold | B3
4 | no binding |  | B4
5 | no binding |  | B5
6 | no binding |  | B6
7 | no binding |  | B7
8 | no binding |  | B8
9 | no binding |  | B9
10 | no binding |  | B10
11 | no binding |  | B11
12 | no binding |  | B12
13 |  | 0.01 fold | B13
14 | no binding |  | B14
15 | no binding |  | B15
16 | no binding |  | B16

Row | binding result | fold difference in affinity vs original | Binder
17 |  | 0.03 fold | B17
18 | no binding |  | B18
19 | no binding |  | B19
20 | no binding |  | B20
21 | no binding |  | B21
22 |  | 0.07 fold | B22
23 |  | 0.04 fold | B23
24 | no binding |  | B24
25 |  | 0.01 fold | B25
26 | no binding |  | B26
27 |  | 0.06 fold | B27
28 |  | 0.02 fold | B28
29 | no binding |  | B29
30 |  | 0.6 fold | B30
31 |  | 1 fold | B31
32 | no binding |  | B32
